{"source": "patent US6586402B1", "about": "“LH-RH peptide analogues, their uses and pharmaceutical compositions containing them” (Laboratoire Theramex, priority 1997, dated 2003)", "key": {"[1]": {"molecular_target": "LH-RH receptors (membrane fractions of pituitaries from female Sprague Dawley rats) (rat (female Sprague Dawley)) (UniProt P30969)", "sequence (P30969 whole entry)": "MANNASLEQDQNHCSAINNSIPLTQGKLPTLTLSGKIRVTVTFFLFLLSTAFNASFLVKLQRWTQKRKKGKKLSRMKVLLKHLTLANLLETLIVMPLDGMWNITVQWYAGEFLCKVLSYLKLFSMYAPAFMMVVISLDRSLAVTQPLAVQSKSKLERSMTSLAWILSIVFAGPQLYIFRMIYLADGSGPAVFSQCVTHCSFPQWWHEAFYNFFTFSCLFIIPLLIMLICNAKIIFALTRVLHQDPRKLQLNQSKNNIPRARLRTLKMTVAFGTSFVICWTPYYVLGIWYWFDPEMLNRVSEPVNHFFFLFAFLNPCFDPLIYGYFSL", "assay": "competition with [125I]-buserelin, rat pituitary membranes"}, "[2]": {"molecular_target": "LH-RH receptors (membrane fractions of pituitaries from female Sprague Dawley rats) (rat (female Sprague Dawley)) (UniProt P30969)", "assay": "competition with [125I]-buserelin, rat pituitary membranes; Ki by Cheng-Prusoff"}}, "data": [{"substance": "Deslorelin (peptide)", "values": [{"measurement": "pKi", "setting": "[1]", "value": "> 9 -log Ki"}, {"measurement": "pKi", "setting": "[2]", "value": "9.9 -log Ki"}]}, {"substance": "Histrelin (peptide)", "values": [{"measurement": "pKi", "setting": "[1]", "value": "> 9 -log Ki"}, {"measurement": "pKi", "setting": "[2]", "value": "9.98 -log Ki"}]}, {"substance": "Buserelin (peptide)", "values": [{"measurement": "pKi", "setting": "[1]", "value": "> 9 -log Ki"}, {"measurement": "pKi", "setting": "[2]", "value": "9.35 -log Ki"}]}, {"substance": "Antide (peptide)", "values": [{"measurement": "pKi", "setting": "[1]", "value": "> 9 -log Ki"}, {"measurement": "pKi", "setting": "[2]", "value": "9.16 -log Ki"}]}]}
